Reference: PMC6391532

Tests used:
Experiment in all cases: SEC
[1] = target: dengue virus 2 capsid protein (DENV2C), wild type (dengue virus 2)
[2] = target: DENV2C I88N (dengue virus 2)
[3] = target: DENV2C L54S (dengue virus 2)
[4] = target: DENV2C L81N (dengue virus 2)
[5] = target: DENV2C L50S (dengue virus 2)

## dengue virus 2 capsid protein (DENV2C), wild type (natural protein)
[1]
  stoichiometry N: 2

## DENV2C I88N (natural protein)
[2]
  stoichiometry N: 2

## DENV2C L54S (natural protein)
[3]
  stoichiometry N: 2

## DENV2C L81N (natural protein)
[4]
  stoichiometry N: 2

## DENV2C L50S (natural protein)
[5]
  stoichiometry N: 2
